# Experimental data from the RNAGym collection of RNA variant scans (doi:10.1093/nar/gkz1192).
# B1: CPEB3 Ribozyme (parent)
# chain: UAACAGGGGGCCACAGCAGAAGCGUUCACGUCGCAGCCCCUGUCAGAUUCUGGUGAAUCUGCGAAUUCUGCUGUAUAUCUC
# Variants of: B1
# Assay: self-cleavage, relative activity (ratio to wild type); higher = more cleavage; in vitro, sequencing
# How it was run: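 For each CPEB3 ribozyme variant, relative activity is its cleaved/total read fraction divided by the unmutated ribozyme's. Barcoded error-prone PCR libraries were transcribed by T7 RNA polymerase (5 hours, 37°C) and held in DNase I for 15 min before an EDTA stop, with cleavage occurring throughout. Template-switching reverse transcription and Illumina sequencing were used to read the RNAs. A 5-read minimum applied, and results are the mean of three batches.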
row,Variant,self-cleavage
1,UAACAGGGGGCCUCAGCAGAAGCGUUCACGUCGCAGCCCCUGUCAGAUUCUGGUGAAUCUGCUAAUUCUGCUGUAUAUCUC [A13U G63U],1.09
2,UAACAGGGGGCCUCAGCAGAAGCGUUCACGUCGCAGCCCCUGUCAGAUUCUGGUGAAUCUGCAAAUUCUGCUGUAUAUCUC [A13U G63A],1.05
3,UAACAGGGGGCCUCAGCAGAAUCGUUCACGUCGCAGCCCCUGUCAGAUUCUGGUGAAUCUGCGAAUUCUGCUGUAUAUCUC [A13U G22U],0.34
4,UAACAGGGGGCCUCAGCAGAACCGUUCACGUCGCAGCCCCUGUCAGAUUCUGGUGAAUCUGCGAAUUCUGCUGUAUAUCUC [A13U G22C],0.19
5,UAACAGGGGGCCUCAGCAGAAGCGUUCACGUCGCAGCCUCUGUCAGAUUCUGGUGAAUCUGCGAAUUCUGCUGUAUAUCUC [A13U C39U],1.18
6,UAACAGGGGGCCUCAGCAGAAGCGUUCACGUCGCAGCCACUGUCAGAUUCUGGUGAAUCUGCGAAUUCUGCUGUAUAUCUC [A13U C39A],0.15
7,UAACAGGGGGCCUCAGCAGAAGCGUUCACGUCGCAGCCGCUGUCAGAUUCUGGUGAAUCUGCGAAUUCUGCUGUAUAUCUC [A13U C39G],0.51
8,UAACAGGGGGCCUCAGCAGAAGCGUUCACGUCGCAGCCCCUGUCAGAUUCUGGGGAAUCUGCGAAUUCUGCUGUAUAUCUC [A13U U54G],1.01
9,UAACAGGGGGCCUCAGCAGAAGCGUUCACGUCGCAGCCCCUGUCAGAUUCUGGCGAAUCUGCGAAUUCUGCUGUAUAUCUC [A13U U54C],1.1
10,UAACAGGGGGCCUCAGCAGAAGCGUUCACGUCGCAGCCCCUGUCAGAUUCUGGAGAAUCUGCGAAUUCUGCUGUAUAUCUC [A13U U54A],1.18
11,UAACAGGGGGCCUCAGCAGAAGCGUUCACGUCGCAGCCCCUGUCAGAUUCUGGUGAAUCUGCGAAUUCUGCUGUAUAUAUC [A13U C79A],1.28
12,UAACAGGGGGCCUCAGCAGAAGCGUUCACGUCGCAGCCCCUGUCAGAUUCUGGUGAAUCUGCGAAUUCUGCUGUAUAUUUC [A13U C79U],1.31
13,UAACAGGGGGCCUCAGCAGAAGCGUUCACGUCGCAGCCCCUGUCAGAUUCCGGUGAAUCUGCGAAUUCUGCUGUAUAUCUC [A13U U51C],0.94
14,UAACAGGGGGCCUCAGCAGAAGCGUUCACGUCGCAGCCCCUGUCAGAUUCAGGUGAAUCUGCGAAUUCUGCUGUAUAUCUC [A13U U51A],1.21
15,UAACAGGGGGCCUCAGCAGAAGCGUUCACGUCGCAGCCCCUGUCAGAUUCGGGUGAAUCUGCGAAUUCUGCUGUAUAUCUC [A13U U51G],1.27
16,UAACAGGGGGCCUCAGCAGAAGCGUUCACGUCCCAGCCCCUGUCAGAUUCUGGUGAAUCUGCGAAUUCUGCUGUAUAUCUC [A13U G33C],0.2
17,UAACAGGGGGCCUCAGCAGAAGCGUUCACGUCACAGCCCCUGUCAGAUUCUGGUGAAUCUGCGAAUUCUGCUGUAUAUCUC [A13U G33A],0.21
18,UAACAGGGGGCCUCAGCAGAAGCGUUCACGUCUCAGCCCCUGUCAGAUUCUGGUGAAUCUGCGAAUUCUGCUGUAUAUCUC [A13U G33U],0.11
19,UAACAGGGGGCCUCAGCAGAAGCGUUCACGUCGCAGCCCCUGUCAGAUUCUGGUUAAUCUGCGAAUUCUGCUGUAUAUCUC [A13U G55U],0.83
20,UAACAGGGGGCCUCAGCAGAAGCGUUCACGUCGCAGCCCCUGACAGAUUCUGGUGAAUCUGCGAAUUCUGCUGUAUAUCUC [A13U U43A],1.09
21,UAACAGGGGGCCUCAGCAGAAGCGUUCACGUCGCAGCCCCUGGCAGAUUCUGGUGAAUCUGCGAAUUCUGCUGUAUAUCUC [A13U U43G],0.26
22,UAACAGGGGGCCUCAGCAGAAGCGUUCACGUCGCAGCCCCUGCCAGAUUCUGGUGAAUCUGCGAAUUCUGCUGUAUAUCUC [A13U U43C],0.93
23,UAACAGGGGGCCUCAGCAGAAGCGUUCACAUCGCAGCCCCUGUCAGAUUCUGGUGAAUCUGCGAAUUCUGCUGUAUAUCUC [A13U G30A],0.24

row,Variant,self-cleavage
1,UAACAGGGGGCCUCAGCAGAAGCGUUCACUUCGCAGCCCCUGUCAGAUUCUGGUGAAUCUGCGAAUUCUGCUGUAUAUCUC [A13U G30U],0.11
2,UAACAGGGGGCCUCAGCAGAAGCGUUCACGUCGCAGCCCCCGUCAGAUUCUGGUGAAUCUGCGAAUUCUGCUGUAUAUCUC [A13U U41C],1.2
3,UAACAGGGGGCCUCAGCAGAAGCGUUCACGUCGCAGCCCCAGUCAGAUUCUGGUGAAUCUGCGAAUUCUGCUGUAUAUCUC [A13U U41A],0.26
4,UAACAGGGGGCCUCAGCAGAAGCGUGCACGUCGCAGCCCCUGUCAGAUUCUGGUGAAUCUGCGAAUUCUGCUGUAUAUCUC [A13U U26G],0.4
5,UAACAGGGGGCCUCAGCAGAAGCGUACACGUCGCAGCCCCUGUCAGAUUCUGGUGAAUCUGCGAAUUCUGCUGUAUAUCUC [A13U U26A],1.08
6,UAACAGGGGGCCUCAGCAGAAGCGUCCACGUCGCAGCCCCUGUCAGAUUCUGGUGAAUCUGCGAAUUCUGCUGUAUAUCUC [A13U U26C],0.64
7,UAACAGGGGGCCUCAGCAGAAGCGUUCACGACGCAGCCCCUGUCAGAUUCUGGUGAAUCUGCGAAUUCUGCUGUAUAUCUC [A13U U31A],0.61
8,UAACAGGGGGCCUCAGCAGAAGCGUUCACGCCGCAGCCCCUGUCAGAUUCUGGUGAAUCUGCGAAUUCUGCUGUAUAUCUC [A13U U31C],1.01
9,UAACAGGGGGCCUCAGCAGAAGCGUUCACGGCGCAGCCCCUGUCAGAUUCUGGUGAAUCUGCGAAUUCUGCUGUAUAUCUC [A13U U31G],0.66
10,UAACAGGGGGCCUCAGCAGAAGCGUUCACGUCGCAGCCCCUGUCAGAUUCUGGUGAAUCUGCGAAUUCUGAUGUAUAUCUC [A13U C71A],0.33
11,UAACAGGGGGCCUCAGCAGAAGCGUUCACGUCGCAACCCCUGUCAGAUUCUGGUGAAUCUGCGAAUUCUGCUGUAUAUCUC [A13U G36A],0.33
12,UAACAGGGGGCCUCAGCAGAAGCGUUCACGUCGCAGCCCCUGUCAGAUUCUGGUGAAUCUGCGAAUUCUGCUAUAUAUCUC [A13U G73A],1.23
13,UAACAGGGGGCCUCAGCAGAAGCGUUCACGUCGCAGCCCCUGUCAGAUUCUGGUGAAUCUGCGAAUUCUGCUCUAUAUCUC [A13U G73C],1.26
14,UAACAGGGGGCCUCAGCAGAAGCGUUCACGUCGCAGCCCCUGUCAGAUUCUGGUGAAUCUGCGAAUUCUGCUUUAUAUCUC [A13U G73U],1.24
15,UAACAGGGGGCCUCAGCAGAAGCGUUCACGUCGCAGCCCCUGUCAGAUUUUGGUGAAUCUGCGAAUUCUGCUGUAUAUCUC [A13U C50U],0.89
16,UAACAGGGGGCCUCAGCAGAAGCGUUCACGUCGCAGCCCCUGUCAGAUUAUGGUGAAUCUGCGAAUUCUGCUGUAUAUCUC [A13U C50A],0.98
17,UAACAGGGGGCCUCAGCAGAAGCGUUCACGUCGCAGCCCCUGUCAGAUUCUGGUGAAUCUGUGAAUUCUGCUGUAUAUCUC [A13U C62U],0.22
18,UAACAGGGGGCCUCAGCAGAAGCGUUCACGUCGCAGCCCCUGUCAGAUUCUGGUGAACCUGCGAAUUCUGCUGUAUAUCUC [A13U U58C],0.72
19,UAACAGGGGGCCUCAGCAGAAGCGUUCACGUCGCAGCCCCUGUCAGAUUCUGGUGAAGCUGCGAAUUCUGCUGUAUAUCUC [A13U U58G],0.3
20,UAACAGGGGGCCUCAGCAGAAGCGUUCACGUCGCAGCCCCUGUCAGAUUCUGGUGAAACUGCGAAUUCUGCUGUAUAUCUC [A13U U58A],0.44
21,UAACAGGGGGCCUCAGCAGAAGCGUUCACGUCGCAGCCCCUGUCAGAUUCUGGUGAAUCUACGAAUUCUGCUGUAUAUCUC [A13U G61A],0.91
22,UAACAGGGGGCCUCAGCAGAAGCGUUCACGUCGCAGCCCCUGUCAGAUUCUCGUGAAUCUGCGAAUUCUGCUGUAUAUCUC [A13U G52C],1.24
23,UAACAGGGGGCCUCAGCAGAAGCGUUCACGUCGCAGCCCCUGUCAGAUUCUAGUGAAUCUGCGAAUUCUGCUGUAUAUCUC [A13U G52A],1.22

row,Variant,self-cleavage
1,UAACAGGGGGCCUCAGCAGAAGCGAUCACGUCGCAGCCCCUGUCAGAUUCUGGUGAAUCUGCGAAUUCUGCUGUAUAUCUC [A13U U25A],0.26
2,UAACAGGGGGCCUCAGCAGAAGCGCUCACGUCGCAGCCCCUGUCAGAUUCUGGUGAAUCUGCGAAUUCUGCUGUAUAUCUC [A13U U25C],0.28
3,UAACAGGGGGCCUCAGCAGAAGCGUUCACGUCGCAGCCCCUGUCAGAUUCUGGUGAAUCUGCGAAUUCUGCUGUAUAUCUU [A13U C81U],1.2
4,UAACAGGGGGCCUCAGCAGAAGCGUUCACGUCGCAGCCCCUGUCAGACUCUGGUGAAUCUGCGAAUUCUGCUGUAUAUCUC [A13U U48C],0.77
5,UAACAGGGGGCCUCAGCAGAAGCGUUCACGUCGCAGCCCCUGUCAGAAUCUGGUGAAUCUGCGAAUUCUGCUGUAUAUCUC [A13U U48A],0.56
6,UAACAGGGGGCCUCAGCAGAAGCGUUCACGUCGCAGCCCCUAUCAGAUUCUGGUGAAUCUGCGAAUUCUGCUGUAUAUCUC [A13U G42A],0.19
7,UAACAGGGGGCCUCAGCAGAAGCGUUCACGUCGCAGCCCCUUUCAGAUUCUGGUGAAUCUGCGAAUUCUGCUGUAUAUCUC [A13U G42U],0.12
8,UAACAGGGGGCCUCAGCAGAAGCGUUCACGUCGCAGCCCCUGUCAGAUUCUGGUGAAUCUGCGAAUUAUGCUGUAUAUCUC [A13U C68A],0.54
9,UAACAGGGGGCCUCAGCAGAAGCGUUCACGUCGCAGCCCCUGUCAGAUUCUGGUGAAUCUGCGAAUUUUGCUGUAUAUCUC [A13U C68U],1.21
10,UAACAGGGGGCCUCAGCAGAAGCGUUCACGUCGCAGCCCCUGUCAGAUUCUGAUGAAUCUGCGAAUUCUGCUGUAUAUCUC [A13U G53A],1.27
11,UAACAGGGGGCCUCAGCAGAAGCGUUCACGUCGCAGCCCCUGUCAGAUUCUGGUGAAUCUGCGAAUUCUACUGUAUAUCUC [A13U G70A],0.48
12,UAACAGGGGGCCUCAGCAGAAGCGUUCACGUCGCAGCCCCUGUCAGAUUCUGGUGAAUCUGCGAAUUCUCCUGUAUAUCUC [A13U G70C],0.21
13,UAACAGGGGGCCUCAUCAGAAGCGUUCACGUCGCAGCCCCUGUCAGAUUCUGGUGAAUCUGCGAAUUCUGCUGUAUAUCUC [A13U G16U],0.47
14,UAACAGGGGGCCUCAGCAGAAGCGUUCACGUCGCAGCCCUUGUCAGAUUCUGGUGAAUCUGCGAAUUCUGCUGUAUAUCUC [A13U C40U],1.25
15,UAACAGGGGGCCUCAGCAGAAGCGUUCACGUCGCAGCCCCUGUCAGAUUCUGGUGAAUAUGCGAAUUCUGCUGUAUAUCUC [A13U C59A],0.58
16,UAACAGGGGGCCUCAGCAGAAGCGUUCACGUCGCAGCCCCUGUUAGAUUCUGGUGAAUCUGCGAAUUCUGCUGUAUAUCUC [A13U C44U],0.23
17,UAACAGGGGGCCUCAGCAGAAGCGUUCACGUCGCAGCCCCUGUAAGAUUCUGGUGAAUCUGCGAAUUCUGCUGUAUAUCUC [A13U C44A],0.29
18,UAACAGGGGGCCUCAGCAGAAGCAUUCACGUCGCAGCCCCUGUCAGAUUCUGGUGAAUCUGCGAAUUCUGCUGUAUAUCUC [A13U G24A],0.26
19,UAACAGGGGGCCUCAGCAAAAGCGUUCACGUCGCAGCCCCUGUCAGAUUCUGGUGAAUCUGCGAAUUCUGCUGUAUAUCUC [A13U G19A],0.17
20,UAACAGGGGGCCUCAGCAGAAGCGUUCACGUCGCAGCCCCUGUCAGAUACUGGUGAAUCUGCGAAUUCUGCUGUAUAUCUC [A13U U49A],0.71
21,UAACAGGGGGCCUCAGCAGAAGCGUUCACGUCGCAGCCCCUGUCAGAUCCUGGUGAAUCUGCGAAUUCUGCUGUAUAUCUC [A13U U49C],0.31
22,UAACAGGGGGCCUCAGCAGAAGCGUUCACGUCGCAGCCCCUGUCAGAUUCUGGUGAAUCAGCGAAUUCUGCUGUAUAUCUC [A13U U60A],0.73
